In patent US20150274820A1 (ESBATECH AN ALCON BIOMEDICAL RESEARCH UNIT, published 2015):
Where a chain is given by its changes, count along the chain named. Numbers in names are those of the source.

T1: recombinant human PLGF (human, UniProt P49763-2 19-149, limits assumed)
T1 construct: Negative control; also called PIGF
T1 sequence (looked up): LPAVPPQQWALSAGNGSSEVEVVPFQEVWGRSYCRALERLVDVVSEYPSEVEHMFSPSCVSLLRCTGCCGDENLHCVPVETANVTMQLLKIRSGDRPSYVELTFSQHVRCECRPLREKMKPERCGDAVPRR

T2: recombinant human VEGF110 (human, UniProt P15692-4 27-136, limits assumed)
T2 construct: Made in house; also called hVEGF110
T2 sequence (looked up): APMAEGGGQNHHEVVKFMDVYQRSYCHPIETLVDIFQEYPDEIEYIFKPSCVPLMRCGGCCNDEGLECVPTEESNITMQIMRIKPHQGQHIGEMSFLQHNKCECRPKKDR

T3: recombinant human VEGF121 (human, UniProt P15692 27-147)
T3 construct: mature; Isoform VEGF121 of the entry; also called hVEGF121
T3 sequence (looked up): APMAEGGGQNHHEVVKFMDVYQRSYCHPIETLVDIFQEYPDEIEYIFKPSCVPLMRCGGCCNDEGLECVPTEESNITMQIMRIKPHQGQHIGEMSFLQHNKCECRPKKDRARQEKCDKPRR

B1: 610-max (scFv)
scFv: EIVMTQSPSTLSASVGDRVIITCQASQSISSWLSWYQQKPGKAPKLLIYQASTLASGVPSRFSGSGSGTEFTLTISSLQPDDFATYYCQNNYGFRSYGGAFGQGTKLTVLGGGGGSGGGGSGGGGSGGGGSEVQLVESGGGLVQPGGSLRLSCTASGIDFSGAYYMGWVRQAPGKGLEWVGYIDYDGDRYYASWAKGRFTISKDTSKNTVYLQMNSLRAEDTAVYYCARSDYSSGWGTDIWGQGTLVTVSS
notes: VL and VH tied by name; also called Protein Nr
B2: 567-min (scFv)
scFv: EIVMTQSPSTLSASVGDRVIITCQADQSIYIWLSWYQQKPGKAPKLLIYKASTLESGVPSRFSGSGSGAEFTLTISSLQPDDFATYYCQNNAHYSTNGGTFGQGTKLTVLGGGGGSGGGGSGGGGSGGGGSEVQLVESGGGLVQPGGSLRLSCAASGFSLSDYYMCWVRQAPGKGLEWVSCLDYFGSTDDASWAKGRFTISRDNSKNTLYLQMNSLRAEDTAVYYCAKTDDSRGWGLNIWGQGTLVTVSS
notes: also called Protein Nr; 884
B3: 435-min (scFv)
scFv: EIVMTQSPSTLSASVGDRVIITCQASQSIGSSLAWYQQKPGKAPKLLIYTAANLASGVPSRFSGSGSGAEFTLTISSLQPDDFATYYCQNFATSDTVTFGQGTKLTVLGGGGGSGGGGSGGGGSGGGGSEVQLVESGGGLVQPGGSLRLSCAASGFSLNTNYWMCWVRQAPGKGLEWVSCMYTGSYNRAYYASWAKGRFTISRDNSKNTLYLQMNSLRAEDTAVYYCAKGSNWYSDLWGQGTLVTVSS
notes: VL and VH tied by name; also called Protein Nr; 944
B4: 375-min (scFv)
scFv: EIVMTQSPSTLSASVGDRVIITCQASENINIWLSWYQQKPGKAPKLLIYQASKLASGVPSRFSGSGSGAEFTLTISSLQPDDFATYYCQNNYSYNRYGAPFGQGTKLTVLGGGGGSGGGGSGGGGSGGGGSEVQLVESGGGLVQPGGSLRLSCAASGFSFTTTDYMCWVRQAPGKGLEWVSCILAGDGSTYYANWAKGRFTISRDNSKNTLYLQMNSLRAEDTAVYYCAKSDPASSWSFALWGQGTLVTVSS
notes: VL and VH tied by name; also called Protein Nr; 857
B5: 375-max (scFv)
scFv: B4 scFv with A69T, E70Q, A154K, S181G, I202G, R204K, N206T, L211V, K230R
notes: VL and VH tied by name; also called Protein Nr; 873
B6: 578-max FW1.4_DHP (scFv)
scFv: EIVMTQSPSTLSASVGDRVIITCQASEIIHSWLAWYQQKPGKAPKLLIYLASTLASGVPSRFSGSGSGTQFTLTISSLQPDDFATYYCQNVYLASTNGANFGQGTKLTVLGGGGGSGGGGSGGGGSGGGGSEVQLVESGGGSVQPGGSLRLSCTASGFSLTDYYYMTWVRQAPGKGLEWVGFIDPDDDPYYATWAKGRFTISRDTSKNTVYLQMNSLRAEDTATYYCAGGDHNSGWGLDIWGQGTTVTVSS
notes: Tied by name only; also called Protein Nr; 960
B7: 578min_max V89A (scFv)
scFv: B6 scFv with T69A, Q70E, S142L, V210A, T224V, T246L
notes: the VH entry already carries V89A; tied by name; also called Protein Nr; 978
B8: 578min_max T84N (scFv)
scFv: B6 scFv with T69A, Q70E, S142L, T205N, T224V, T246L
notes: the VH entry already carries T84N; tied by name; also called Protein Nr
B9: 578-max-min (scFv)
scFv: B6 scFv with S142L, T154A, G181S, T205N, V210L, T224V, G229K, T246L
notes: also called Protein Nr; 902
B10: 578min_max V89L (scFv)
scFv: B6 scFv with T69A, Q70E, S142L, V210L, T224V, T246L
notes: the VH entry already carries V89L; tied by name; also called Protein Nr; 980
B11: 578min_max T84N_V89A (scFv)
scFv: B6 scFv with T69A, Q70E, S142L, T205N, V210A, T224V, T246L
notes: the VH entry already carries the changes; tied by name; also called Protein Nr; 1009
B12: 511max_min (scFv)
scFv: EIVMTQSPSTLSASVGDRVIITCQASQSINIWLSWYQQKPGKAPKLLIYRASTLASGVPSRFSGSGSGTEFTLTISSLQPDDFATYYCQANYAYSAGYGAAFGQGTKLTVLGGGGGSGGGGSGGGGSGGGGSEVQLVESGGGLVQPGGSLRLSCAASGFSLNTYYMNWVRQAPGKGLEWVSIIAPDDTTYYASWAKSRFTISRDNSKNTLYLQMNSLRAEDTAVYYCAKSGDTTAWGADIWGQGTLVTVSS
notes: also called Protein Nr; 905
B13: 511min_max (scFv)
scFv: B12 scFv with L33C, T69A, A155T, A156V, S181G, F199S, N205T, L210V, K229R
notes: also called Protein Nr; 904
B14: 534-min C-His (scFv)
scFv: EIVMTQSPSTLSASVGDRVIITCQASQSINIWLSWYQQKPGKAPKLLIYKESTLASGVPSRFSGSGSGAEFTLTISSLQPDDFATYYCQNNYDSGNNGFPFGQGTKLTVLGGGGGSGGGGSGGGGSGGGGSEVQLVESGGGLVQPGGSLRLSCAASGFSLSYYYMSWVRQAPGKGLEWVSIIGPGDYTDYASWAKGRFTISRDNSKNTLYLQMNSLRAEDTAVYYCAKGDDNSGWGEDIWGQGTLVTVSS
notes: VL and VH tied by name; His tag only named (C-His); also called Protein Nr; 807; not shown: C-terminal His tag
B15: 610-min (scFv)
scFv: B1 scFv with T69A, T154A, G181S, K203R, T205N, V210L, R229K
notes: as for B1

Each binder was assayed against T4, recombinant human VEGF165 (human, UniProt P15692 27-191) (assay: Biacore SPR, VEGF immobilized, pH 7.4).
T4 construct: mature; Isoform VEGF165 of the entry; also called hVEGF165; hVEGF
Description: (§1) In this example, the Biacore-binding ability of scFvs was tested and the binding affinity was measured using the exemplary surface plasmon resonance method with BIAcore™-T100. The VEGF proteins, tested for binding by these scFv candidates, in this example and later examples include purified Escherichia coli-expressed recombinant human VEGF₁₆₅ (PeproTech EC Ltd.), recombinant human VEGF₁₂₁ (PeproTech EC Ltd.), recombinant human VEGF₁₁₀ (ESBATech AG), recombinant murine VEGF₁₆₄ (PeproTech EC Ltd.), recombinant rat VEGF₁₆₄ (Biovision), recombinant rabbit VEGF₁₁₀ (ESBATech AG), and recombinant human PLGF (PeproTech EC Ltd.). For the surface plasmon resonance experiment, carboxymethylated dextran biosensor chips (CM4, GE Healthcare) were activated with N-ethyl-N′-(3-dimethylaminopropyl) carbodiimide hydrochloride and N-hydroxysuccinimide according to the supplier's instructions. Each of the 6 different VEGF forms, as exemplified above, was coupled to 1 of the 4 different flow cells on a CM4 sensor chip using a standard amine-coupling procedure. […] The 4th flow cell of each chip was treated similarly except no proteins were immobilized prior to blocking, and the flow cell was used as in-line reference. […] Dissociation of the anti-VEGF scFv from the VEGF on the CM4 chip was allowed to proceed for 10 min at 25° C. Sensorgrams were generated for each anti-VEGF scFv sample after in-line reference cell correction followed by buffer sample subtraction. The apparent dissociation rate constant (kd), the apparent association rate constant (kₐ) and the apparent dissociation equilibrium constant (KD) were calculated using one-to-one Langmuir binding model with BIAcore T100 evaluation Software version 1.1.

T4 sequence (P15692 other isoform, or with tags, fused parts or gaps): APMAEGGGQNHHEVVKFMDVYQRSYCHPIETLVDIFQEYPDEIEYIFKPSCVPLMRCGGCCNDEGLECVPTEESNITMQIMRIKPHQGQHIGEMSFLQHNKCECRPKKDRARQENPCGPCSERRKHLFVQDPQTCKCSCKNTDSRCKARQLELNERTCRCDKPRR

| kon [M⁻¹ s⁻¹] | koff [s⁻¹] | Binder |
| --- | --- | --- |
| > 1e+08 | – | B1 |
| 1.11e+06 | 0.0007 | B2 |
| 495000 | 0.0143 | B3 |
| > 1e+08 | – | B4 |
| 5.09e+07 | 0.242 | B5 |

These binders were tested against recombinant murine VEGF164 (mouse) (UniProt Q00731) (assay: Biacore SPR, VEGF immobilized, pH 5).

| koff [s⁻¹] | kon [M⁻¹ s⁻¹] | Binder |
| --- | --- | --- |
| 0.00035 | 2.06e+06 | B2 |

What follows are binders tested against recombinant rat VEGF164 (rat) (UniProt P16612) (assay: Biacore SPR, VEGF immobilized, pH 5).

| koff [s⁻¹] | kon [M⁻¹ s⁻¹] | Binder |
| --- | --- | --- |
| 0.00048 | 1.72e+06 | B2 |

What follows are binders tested against T4, recombinant human VEGF165 (assay: Biacore SPR, VEGF immobilized, pH 5).
Description: as §1, with “1.1. […]” for “1.1.”

| Kd [nM] | koff [s⁻¹] | kon [M⁻¹ s⁻¹] | Binder |
| --- | --- | --- | --- |
| 0.266 | 0.000248 | 930000 | B6 |
| 1.2 | 0.000612 | 509000 | B7 |
| 0.971 | 0.0007 | 721000 | B8 |
| 6.55 | 0.00883 | 1.35e+06 | B9 |
| 2.13 | 0.00187 | 875000 | B10 |
| 0.615 | 0.000493 | 801000 | B11 |
| 1.48 | 0.000754 | 511000 | B12 |
| 0.278 | 0.000102 | 366000 | B13 |

Biological target: T4, recombinant human VEGF165
Assay: Biacore SPR, VEGF immobilized, pH 5
Remark: another data set of the same source
Description: as §1

| koff [s⁻¹] | kon [M⁻¹ s⁻¹] | Binder |
| --- | --- | --- |
| 0.00921 | 271000 | B14 |
| 0.00265 | 251000 | B15 |
| 0.000601 | 509000 | B1 |
| 0.000461 | 2.01e+06 | B2 |
| 0.00501 | 927000 | B4 |
| 0.00655 | 2.44e+06 | B5 |

The binders below were run against T1, recombinant human PLGF (assay: Biacore SPR, PlGF immobilized, pH 5).
Description: as §1

| binding result | Binder |
| --- | --- |
| no binding | B2 |

Biological target: T4, recombinant human VEGF165
Assay: Biacore SPR, VEGF immobilized, pH 5
Remark: another data set of the same source
Description: as §1

| koff [s⁻¹] | kon [M⁻¹ s⁻¹] | Binder |
| --- | --- | --- |
| 0.000461 | 2.01e+06 | B2 |

Each binder was assayed against T2, recombinant human VEGF110 (assay: Biacore SPR, VEGF immobilized, pH 5).
Description: as §1

| koff [s⁻¹] | kon [M⁻¹ s⁻¹] | Binder |
| --- | --- | --- |
| 3.82e-05 | 1.52e+06 | B2 |

Each binder was assayed against T3, recombinant human VEGF121 (assay: Biacore SPR, VEGF immobilized, pH 5).
Description: as §1

| koff [s⁻¹] | kon [M⁻¹ s⁻¹] | Binder |
| --- | --- | --- |
| 4.54e-05 | 1.89e+06 | B2 |
